Columns and labels:
[1] = biological target: HLA-A*02:01; assay: IEDB peptide-MHC binding, purified MHC/competitive/fluorescence; filed as Kd, often an IC50 or EC50 that approximates it; ≥ and ≤ were set here for values at or beyond the usual limits of such assays
[2] = biological target: HLA-A*02:03; assay: as above
[3] = biological target: HLA-A*02:11; assay: as above
[4] = biological target: HLA-A*02:12; assay: as above
[5] = biological target: HLA-A*02:16; assay: as above
[6] = biological target: HLA-A*02:19; assay: as above
[7] = biological target: HLA-A*03:01; assay: as above; settings: source organism: Entamoeba dispar SAW760
[8] = biological target: HLA-A*24:03; assay: as above
[9] = biological target: HLA-A*26:01; assay: as above
[10] = biological target: HLA-A*29:02; assay: as above; settings: source organism: Entamoeba dispar SAW760
[11] = biological target: HLA-A*68:02; assay: as above
[12] = biological target: HLA-A*69:01; assay: as above
[13] = biological target: HLA-B*15:01; assay: as above
[14] = biological target: HLA-B*15:17; assay: as above; settings: source organism: Entamoeba dispar SAW760
[15] = biological target: HLA-B*18:01; assay: as above
[16] = biological target: HLA-B*27:03; assay: as above
[17] = biological target: HLA-B*39:01; assay: as above
[18] = biological target: HLA-B*46:01; assay: as above
[19] = biological target: HLA-B*51:01; assay: as above
[20] = biological target: HLA-B*57:01; assay: as above
[21] = biological target: HLA-B*08:01; assay: as above; settings: source organism: Shigella boydii Sb227
[22] = biological target: HLA-A*31:01; assay: as above; settings: source organism: Coxiella burnetii RSA 331
[23] = biological target: HLA-A*02:01; assay: IEDB peptide-MHC binding, purified MHC/direct/fluorescence; filed as Kd, often an IC50 or EC50 that approximates it; ≥ and ≤ were set here for values at or beyond the usual limits of such assays; settings: source organism: Yersinia pestis
[24] = biological target: HLA-A*03:01; assay: as above; settings: source organism: Yersinia pestis
[25] = biological target: HLA-A*26:01; assay: as above; settings: source organism: Yersinia enterocolitica subsp. enterocolitica 8081
[26] = biological target: HLA-B*07:02; assay: as above; settings: source organism: Yersinia pestis
[27] = biological target: HLA-B*08:02; assay: as above; settings: source organism: Yersinia enterocolitica subsp. enterocolitica 8081
[28] = biological target: HLA-B*08:03; assay: as above; settings: source organism: Yersinia enterocolitica subsp. enterocolitica 8081
[29] = biological target: HLA-B*15:01; assay: as above; settings: source organism: Yersinia pestis
[30] = biological target: HLA-B*18:01; assay: as above; settings: source organism: Yersinia pestis
[31] = biological target: HLA-B*27:05; assay: as above; settings: source organism: Yersinia pestis
[32] = biological target: HLA-B*39:01; assay: as above; settings: source organism: Yersinia enterocolitica subsp. enterocolitica 8081
[33] = biological target: HLA-B*40:01; assay: as above; settings: source organism: Yersinia pestis
[34] = biological target: HLA-B*46:01; assay: as above; settings: source organism: Yersinia pestis
[35] = biological target: HLA-B*48:01; assay: as above; settings: source organism: Yersinia pestis
[36] = biological target: HLA-B*57:01; assay: as above; settings: source organism: Yersinia pestis
[37] = biological target: HLA-B*58:01; assay: as above; settings: source organism: Yersinia pestis
[38] = biological target: HLA-A*01:01; assay: IEDB peptide-MHC binding, purified MHC/competitive/fluorescence; filed as Kd, often an IC50 or EC50 that approximates it; ≥ and ≤ were set here for values at or beyond the usual limits of such assays; settings: source organism: Yersinia pestis Nepal516
[39] = biological target: HLA-A*02:06; assay: as above; settings: source organism: Yersinia pestis Nepal516
[40] = biological target: HLA-A*26:02; assay: as above; settings: source organism: Yersinia pestis Nepal516
[41] = biological target: HLA-A*26:03; assay: as above; settings: source organism: Yersinia pestis Nepal516
[42] = source organism: Entamoeba dispar SAW760
[43] = source organism: Coxiella burnetii RSA 331
[44] = source organism: Deerpox virus W-848-83

Measured: Kd

FELLHFISS
≥ 20 µM: [1]; [42] | [2]; [42] | [3]; [42] | [4]; [42] | [5]; [42] | [6]; [42] | [7] | [8]; [42] | [9]; [42] | [10] | [11]; [42] | [12]; [42] | [13]; [42] | [14] | [16]; [42] | [17]; [42] | [18]; [42] | [19]; [42] | [20]; [42]
0.564 µM: [15]; [42]

FLSHKIHVI
0.0016 µM: [1]; source organism: Shigella boydii Sb227
0.0861 µM: [21]

HMNKLPLAK
0.223 µM: [22]
≥ 20 µM: [1]; [43] | [2]; [43] | [3]; [43] | [4]; [43] | [5]; [43] | [6]; [43] | [8]; [43] | [9]; [43] | [11]; [43] | [12]; [43] | [13]; [43] | [15]; [43] | [16]; [43] | [17]; [43] | [18]; [43] | [19]; [43] | [20]; [43]

QWSPGPGRL
4.85 µM: [2]; source organism: Yersinia pestis Nepal516
0.719 µM: [24]
0.157 µM: [39]
≥ 20 µM: [23] | [25] | [26] | [27] | [28] | [29] | [30] | [31] | [32] | [33] | [34] | [35] | [36] | [37] | [38] | [40] | [41]

YVAGITLTH
≥ 20 µM: [1]; [44] | [2]; [44] | [3]; [44] | [4]; [44] | [5]; [44] | [6]; [44] | [12]; [44] | [15]; [44] | [16]; [44] | [17]; [44] | [19]; [44] | [20]; [44]

— the Immune Epitope Database (IEDB)
